Source: US20180291082A1 (IMMATICS BIOTECHNOLOGIES, published 2018)

These binders were tested against T1, HLA-A*01:01 (human) (assay: UV-ligand exchange, anti-b2m ELISA; exchange yield grade (+ >10%, ++ >20%, +++ >50, ++++ >75%)).
T1 construct: Peptide-receptive MHC monomer made by UV cleavage of a UV-sensitive peptide
Source text: (§1) Candidate peptides for T cell based therapies according to the present invention were further tested for their MHC binding capacity (affinity). The individual peptide-MHC complexes were produced by UV-ligand exchange, where a UV-sensitive peptide is cleaved upon UV-irradiation, and exchanged with the peptide of interest as analyzed. Only peptide candidates that can effectively bind and stabilize the peptide-receptive MHC molecules prevent dissociation of the MHC complexes. To determine the yield of the exchange reaction, an ELISA was performed based on the detection of the light chain (β2m) of stabilized MHC complexes. The assay was performed as generally described in Rodenko et al. (Rodenko et al., 2006).
(§2) 96 well MAXISorp plates (NUNC) were coated over night with 2 ug/ml streptavidin in PBS at room temperature, washed 4× and blocked for 1 h at 37° C. in 2% BSA containing blocking buffer. Refolded HLA-A*02:01/MLA-001 monomers served as standards, covering the range of 15-500 ng/ml. Peptide-MHC monomers of the UV-exchange reaction were diluted 100-fold in blocking buffer. Samples were incubated for 1 h at 37° C., washed four times, incubated with 2 ug/ml HRP conjugated anti-β2m for 1 h at 37° C., washed again and detected with TMB solution that is stopped with […]. Absorption was measured at 450 nm. Candidate peptides that show a high exchange yield (preferably higher than 50%, most preferred higher than 75%) are generally preferred for a generation and production of antibodies or fragments thereof, and/or T cell receptors or fragments thereof, as they show sufficient avidity to the MHC molecules and prevent dissociation of the MHC complexes.

Row | Binder | peptide exchange yield
1 | FITAQNHGY | 20 to 50%
2 | LTDYINANY | 50 to 75%
3 | LITGDPKAAYDY | 20 to 50%
4 | FADKIHLAY | 50 to 75%
5 | RSDPGGGGLAY | 50 to 75%
6 | LTDYLKNTY | 50 to 75%
7 | NSDLKYNAL | 20 to 50%
8 | LPSPTDSNFY | 20 to 50%
9 | LSLIDRLVLY | 20 to 50%
10 | GSTMVEHNY | 20 to 50%
11 | ASSTDSASYY | 50 to 75%
12 | LTDSFPLKV | 50 to 75%
13 | LMKEVMEHY | 20 to 50%
14 | ATVGYFIFY | 20 to 50%
15 | ITDFNNIRY | 50 to 75%
16 | FSDKELAAY | > 75%
17 | FASDLLHLY | 20 to 50%
18 | ITFGERFEY | 50 to 75%
19 | ITAQNHGY | 20 to 50%
20 | RSDPVTLDV | 50 to 75%
21 | RSDPVTLNV | 50 to 75%
22 | LDSHIHAY | 10 to 20%
23 | RSPNNFLSY | 20 to 50%
24 | EVSNGKWLLY | 50 to 75%
25 | SILGSDVRVPSY | 20 to 50%
26 | LSAGSGPGQY | 50 to 75%
27 | EVLDSHIHAY | 10 to 20%

Now from value to binder:

Row | peptide exchange yield | Binder
28 | > 75% | YSDLHAFYY
29 | 50 to 75% | TLEQVQLYY
30 | 10 to 20% | SVTDLEMPHY
31 | > 75% | VTDLEMPHY
32 | 50 to 75% | YAAYIIHAY
33 | 50 to 75% | STDIGALMY
34 | 50 to 75% | VLDLSTNVY
35 | 20 to 50% | TPVTEFSLNTY
36 | 50 to 75% | YTDKLQHY
37 | 50 to 75% | YTERDGSAMVY
38 | 50 to 75% | VLDSHIHAY
39 | 50 to 75% | STDEITTRY
40 | 10 to 20% | TASEDVFQY
41 | 50 to 75% | YSHAAGQGTGLY
42 | 50 to 75% | VSNGKWLLY
43 | 10 to 20% | YTHHLFIFY

What follows are binders tested against T2, HLA-A*03:01 (human) in the same assay as above.
T2 construct: Peptide-receptive MHC monomer made by UV cleavage of a UV-sensitive peptide
Source text: as §1, §2

Row | peptide exchange yield | Binder
44 | 50 to 75% | RLFESSFHY
45 | 50 to 75% | KTYVGHPVKM

Each binder was assayed against T3, HLA-B*07:02 (human) in the same assay as above.
T3 construct: Peptide-receptive MHC monomer made by UV cleavage of a UV-sensitive peptide
Source text: as §1, §2

Row | Binder | peptide exchange yield
46 | IPEPSAQQL | 20 to 50%
47 | FPYPYAERL | 20 to 50%
48 | SPIKVPLLL | 50 to 75%
49 | IPSRLLAIL | 50 to 75%
50 | RPAPADSAL | 50 to 75%
51 | RVPSYTLIL | 50 to 75%
52 | KPSSKALGTSL | 50 to 75%
53 | SPGDKRLAA | 50 to 75%
54 | FELPTGAGLQL | 20 to 50%
55 | FPAHPSLLL | 20 to 50%
56 | HPQVVILSL | 50 to 75%
57 | APAAVPSAPA | 50 to 75%
58 | NPYEGRVEV | 20 to 50%
59 | GPGTRLSL | 20 to 50%

Continued, values first:

Row | peptide exchange yield | Binder
60 | 20 to 50% | VVHPRTLLL
61 | 20 to 50% | VPERGEPEL
62 | 20 to 50% | SPSPGKDPTL
63 | 20 to 50% | YPLTGDTRL
64 | 20 to 50% | VPDGVSKVL
